Data: the supplement of paper PMC10899765

Assays:
Details in all cases: 20 nM; 72 h
MCF10A [1] = assay: percent viability (nuclei count relative to siNT); higher = more viable cells
Method: (§1)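 After 72 h, cells were fixed and stained with Hoechst and anti-fibrillarin, and nucleoli per nucleus were counted with CellProfiler. Values are plate-adjusted percent effect for the one-nucleolus and 5+ nucleoli phenotypes, normalised to siNT (0%) and to the positive controls siNOL11 or siKIF11 (100%), as the mean of biological triplicates. Percent viability is the nuclei count relative to siNT.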

MCF10A [2] = assay: 5+ nucleoli phenotype percent effect (relative to siNT 0% and siKIF11 100%); higher = more cells with five or more nucleoli
Method: as §1

MCF10A [3] = assay: one-nucleolus phenotype percent effect (relative to siNT 0% and siNOL11 100%); higher = more cells with one nucleolus (ribosome biogenesis inhibition)
Method: as §1

Sequence | percent viability (MCF10A [1]) [%] | 5+ nucleoli phenotype percent effect (MCF10A [2]) [%] | one-nucleolus phenotype percent effect (MCF10A [3]) [%]
UCAAAACUGAGGGGCAUUUUCU [hsa-miR-1323] | 55.9 | 27.8 | -19.4
UCAAAAUCAGGAGUCGGGGCUU [hsa-miR-8063] | 81.3 | 18.2 | -23.1
UCAAAAUGUAGAGGAAGACCCCA [hsa-miR-4698] | 127 | 21.6 | -18.4
UCAAAUGCAGAUCCUGACUUC [hsa-miR-7853-5p] | 42.1 | 14 | -15.6
UCAAAUGCUCAGACUCCUGUGGU [hsa-miR-105-5p] | 37.7 | -18 | -6.5
UCAACAAAAUCACUGAUGCUGGA [hsa-miR-3065-5p] | 117 | 38.2 | -30.5
UCAAGAGCAAUAACGAAAAAUGU [hsa-miR-335-5p] | 79.4 | 37.7 | -9.96
UCAAGGCCAGAGGUCCCACAGCA [hsa-miR-3922-5p] | 30.9 | -12.7 | 6.44
UCAAGUAGUUUCAUGAUAAAGG [hsa-miR-5697] | 118 | 12.5 | -14.6
UCAAGUGUCAUCUGUCCCUAG [hsa-miR-6513-3p] | 126 | 42.1 | -7.47
UCAAUAAAUGUCUGUUGAAUU [hsa-miR-95-5p] | 101 | 26.3 | -26.5
UCAAUAGGAAAGAGGUGGGACCU [hsa-miR-6826-5p] | 33.3 | -20.8 | 26.5
UCAAUCACUUGGUAAUUGCUGU [hsa-miR-4705] | 53.1 | 38.7 | -19.5
UCACAAAUCUAUAAUAUGCAGG [hsa-miR-4719] | 149 | 40.1 | -19.7
UCACAACAACCUUGCAGGGUAGA [hsa-miR-5003-5p] | 80.1 | 16.9 | -10.6
UCACAAGGUAUUGACUGGCGUA [hsa-miR-4457] | 47.9 | -15.7 | 1.5
UCACAAGUCAGGCUCUUGGGAC [hsa-miR-125b-2-3p] | 37.1 | -44.2 | 59.8
UCACACCUGCCUCGCCCCCC [hsa-miR-1228-3p] | 64.7 | -13.8 | 5.12
UCACAGUGAACCGGUCUCUUU [hsa-miR-128] | 81.7 | -27.9 | 12.2
UCACAGUGGUCUCUGGGAUUAU [hsa-miR-216a-3p] | 29.5 | -17.5 | 8.32
UCACCAGCCCUGUGUUCCCUAG [hsa-miR-1226-3p] | 31.7 | -42.2 | 33.5
UCACCCUGCAUCCCGCACCCAG [hsa-miR-3620-3p] | 77 | 11.8 | -11.9
